In paper PMC11144241, “Nutrient levels control root growth responses to high ambient temperature in plants”:

Biological target: T1, HY5 (Arabidopsis thaliana, UniProt O24646 1-168)
T1 sequence: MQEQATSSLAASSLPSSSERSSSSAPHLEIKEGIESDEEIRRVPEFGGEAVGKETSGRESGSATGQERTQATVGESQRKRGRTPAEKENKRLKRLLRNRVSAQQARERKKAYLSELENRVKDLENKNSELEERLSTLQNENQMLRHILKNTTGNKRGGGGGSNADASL
Test: EMSA; EMSA according to manufacturer's protocol (Thermofisher); buffer, salt, pH and temperature not stated
Settings: protein: recombinant; tags: GST (pDEST15, N-terminal); label: biotin 3' end; blunt

B1: pNRT1.1-EMSA (G-box probe, NRT1.1 promoter) (dsDNA)
DNA 1: GAGTCACACATGTGTCACTT
DNA 2: AAGTGACACATGTGTGACTC
binding result: binds
